In patent publication US20050266469A1, “Alternatively spliced isoforms of checkpoint kinase 1 (CHK1)” (priority 2004, published 2005):

What was measured:
CHK1sv1 = target: T1, CHK1sv1 (Homo sapiens, UniProt O14757); assay: CHK1sv1 kinase assay (Homogenous Time-Resolved Fluorescence, synthetic peptide substrate); type: biochemical; conditions: phospho-peptide product per microgram of CHK1sv1; ATP and CDC25C peptide substrate at saturating concentrations
T1 construct: made in house; host or cells: SF9 insect cells (baculovirus, pVL1393 transfer vector)
T1 sequence (O14757 with tags, fused parts or gaps): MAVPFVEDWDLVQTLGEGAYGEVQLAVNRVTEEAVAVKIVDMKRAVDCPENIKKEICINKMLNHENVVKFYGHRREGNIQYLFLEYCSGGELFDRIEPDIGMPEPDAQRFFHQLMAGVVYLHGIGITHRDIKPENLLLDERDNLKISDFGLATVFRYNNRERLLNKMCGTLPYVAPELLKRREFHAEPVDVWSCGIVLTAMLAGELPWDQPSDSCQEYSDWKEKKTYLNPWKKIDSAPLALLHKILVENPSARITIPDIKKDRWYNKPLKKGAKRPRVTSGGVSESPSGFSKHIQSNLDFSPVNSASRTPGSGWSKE
Protocol: CHK1sv1 activity was assayed in vitro using a synthetic peptide substrate. The phophopeptide product was quantitated using a Homogenous Time-Resolved Fluorescence assay system (Park et al., 1999, Anal. Biochem. 269:94-104). The reaction mixture contained 40 mM HEPES, pH 7.3; 100 mM NaCl; 10 mM MgCl2; 2 mM dithiothreitol; 0.1% BSA; 0.1 mM ATP; 0.5 μM peptide substrate; and 0.1 nM CHK1sv1 enzyme in a final volume of 40 μl. […] The kinase reaction was incubated for 30 minutes at 22° C., and then terminated with 60 μl Stop/Detection Buffer (40 mM HEPES, pH 7.3; 10 mM EDTA; 0.125% Triton X-100; 1.25% BSA; 250 nM PhycoLink Streptavidin-Allophycocyanin (APC) Conjugate (Prozyme, San Leandro, Calif.); and […] Europium-chelate labeled anti-phosphotyrosine antibody (PY20, Perkin Elmer, Boston, Mass.)). The reaction was allowed to equilibrate for 2 hours at 22° C., and relative fluorescent units were read on a Discovery plate reader (Packard Biosciences). ATP Km was determined by varying ATP concentration from 0.003 to 3 mM in the reaction described above and determining the relative enzymatic rates. […] CHK1sv1 Vmax was calculated by determining the amount of phospho-peptide product formed per microgram of CHKsv1 when both ATP and CDC25C peptide substrate are at saturating concentrations.

reference CHK1 = target: T2, reference CHK1 (Homo sapiens, UniProt O14757); conditions: previously described (O'Neill et al., 2002; Jackson et al., 2000); cited from earlier work
T2 sequence (O14757 1-476): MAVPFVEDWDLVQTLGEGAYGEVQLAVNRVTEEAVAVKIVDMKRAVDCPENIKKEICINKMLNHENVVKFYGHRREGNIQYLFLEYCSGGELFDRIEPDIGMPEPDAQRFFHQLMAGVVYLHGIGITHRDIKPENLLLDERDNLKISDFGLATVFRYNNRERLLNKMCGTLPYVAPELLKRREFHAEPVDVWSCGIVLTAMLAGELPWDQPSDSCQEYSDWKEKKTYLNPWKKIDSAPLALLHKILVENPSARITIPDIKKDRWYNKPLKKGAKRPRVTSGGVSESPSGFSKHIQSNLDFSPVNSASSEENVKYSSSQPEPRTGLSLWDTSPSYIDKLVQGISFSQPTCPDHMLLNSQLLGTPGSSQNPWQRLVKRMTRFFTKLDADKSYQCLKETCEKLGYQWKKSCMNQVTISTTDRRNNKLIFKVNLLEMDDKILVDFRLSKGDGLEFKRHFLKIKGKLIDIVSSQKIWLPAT

B1: CHK1sv1: splice variant isoform of human CHK1 protein, exon 9 spliced to exon 11, expressed in SF9 insect cells (protein, listed as Homo sapiens)
chain: MAVPFVEDWDLVQTLGEGAYGEVQLAVNRVTEEAVAVKIVDMKRAVDCPENIKKEICINKMLNHENVVKFYGHRREGNIQYLFLEYCSGGELFDRIEPDIGMPEPDAQRFFHQLMAGVVYLHGIGITHRDIKPENLLLDERDNLKISDFGLATVFRYNNRERLLNKMCGTLPYVAPELLKRREFHAEPVDVWSCGIVLTAMLAGELPWDQPSDSCQEYSDWKEKKTYLNPWKKIDSAPLALLHKILVENPSARITIPDIKKDRWYNKPLKKGAKRPRVTSGGVSESPSGFSKHIQSNLDFSPVNSASRTPGSGWSKE
With B1 the Vmax (CHK1sv1) was 36 nmol/min/µg.

B2: CHK1: human checkpoint kinase 1 reference protein (protein, UniProt O14757 1-476, looked up)
Serine/threonine-protein …: MAVPFVEDWDLVQTLGEGAYGEVQLAVNRVTEEAVAVKIVDMKRAVDCPENIKKEICINKMLNHENVVKFYGHRREGNIQYLFLEYCSGGELFDRIEPDIGMPEPDAQRFFHQLMAGVVYLHGIGITHRDIKPENLLLDERDNLKISDFGLATVFRYNNRERLLNKMCGTLPYVAPELLKRREFHAEPVDVWSCGIVLTAMLAGELPWDQPSDSCQEYSDWKEKKTYLNPWKKIDSAPLALLHKILVENPSARITIPDIKKDRWYNKPLKKGAKRPRVTSGGVSESPSGFSKHIQSNLDFSPVNSASSEENVKYSSSQPEPRTGLSLWDTSPSYIDKLVQGISFSQPTCPDHMLLNSQLLGTPGSSQNPWQRLVKRMTRFFTKLDADKSYQCLKETCEKLGYQWKKSCMNQVTISTTDRRNNKLIFKVNLLEMDDKILVDFRLSKGDGLEFKRHFLKIKGKLIDIVSSQKIWLPAT
In the case of B2, the Vmax (reference CHK1) is listed as 0.6 nmol/min/µg.
